Measurements from US20070054846A1, “Bcl-w structure and uses therefor” (priority 2002, published 2007).

Assays:
Type in all cases: binding
full-length Bcl-xL [1] = target: T1, full-length Bcl-xL (Homo sapiens, UniProt Q07817); assay: Co-immunoprecipitation from cell extracts; settings: FLAG-tagged full-length Bcl-xL
T1 construct: FLAG-tagged full-length Bcl-xL or a C-terminally truncated mutant (ΔC24); expressed in transfected cells
Excerpt: (§1) Bcl-xL and Bcl-2 also contain hydrophobic residues at their C-termini, similar to those found in Bcl-w (FIG. 1C), yet the low level of sequence identity following α8 and the absence of 3D-structural information, makes prediction of their conformation difficult. Since BCl-xL, like Bcl-w, is only partially membrane-bound in healthy cells (Hsu et al., 1997), we compared the ability of FLAG-tagged full-length Bcl-xL or a C-terminally truncated mutant (ΔC24) to bind to BimL or the […]L94A B3 mutant.
Cell culture, stable transfections into FDC-P1, transient transfections into 293T human embryonic kidney cells, metabolic labelling with ^35S-methionine/cysteine (NEN) and co-immunoprecipitation have been previously described (O'Connor et al., 1998, Moriishi et al., 1999; Huang et al., 1998; Wilson-Annan et al., 2003). Briefly, mammalian pEF-based expression vectors for Bcl-w, BCl-xL, Bim, Bmf, Bad and Bik (O'Connor et al., 1998, Huang et al., 1998; Moriishi et al., 1999; Wilson-Annan et al., 2003) were transiently transfected using liposome mediated transfection (Lipofectamine™; Invitrogen). […] The immunoprecipitates were resolved by SDS-PAGE (Novex), transferred onto nitrocellulose membranes (APB) and the proteins detected by fluorography (Amplify; APB).

full-length Bcl-xL [2] = target: T1, full-length Bcl-xL; assay: GST pull-down
Excerpt: as §1
Direct interactions between Bcl-w and BimL were monitored using GST pull-down experiments. These were performed in 100 μl of PBS (phosphate buffered saline pH 7.3) containing 2 mM DTT. Typically excess soluble proteins were added to equivalent amounts of resin bound proteins. After incubation at room temperature for 30 minutes the resin was pelleted and then washed twice with 200 μl of PBS containing 0.2% Tween 20. After removal of the second wash 10 μl of SDS-PAGE sample buffer was added to each sample and the samples were boiled then loaded onto 16% polyacrylamide gels that were electrophoresed and stained with Coomassie Blue R250. The staining intensity of the bound soluble protein indicated the strength of the interaction between the two proteins.

Bcl-xLΔC24 = target: T2, Bcl-xLΔC24 (Homo sapiens, UniProt Q07817); assay: Co-immunoprecipitation / GST pull-down; settings: C-terminally truncated Bcl-xL (ΔC24)
T2 construct: expressed in transfected cells
Excerpt: as §1
Direct interactions between Bcl-w and BimL were monitored using GST pull-down experiments. These were performed in 100 μl of PBS (phosphate buffered saline pH 7.3) containing 2 mM DTT. Typically excess soluble proteins were added to equivalent amounts of resin bound proteins. After incubation at room temperature for 30 minutes the resin was pelleted and then washed twice with 200 μl of PBS containing 0.2% Tween 20. […]
Cell culture, stable transfections into FDC-P1, transient transfections into 293T human embryonic kidney cells, metabolic labelling with ^35S-methionine/cysteine (NEN) and co-immunoprecipitation have been previously described (O'Connor et al., 1998, Moriishi et al., 1999; Huang et al., 1998; Wilson-Annan et al., 2003). […] The immunoprecipitates were resolved by SDS-PAGE (Novex), transferred onto nitrocellulose membranes (APB) and the proteins detected by fluorography (Amplify; APB).

T1 sequence (Q07817 whole entry, species assumed, the tested form may be a part): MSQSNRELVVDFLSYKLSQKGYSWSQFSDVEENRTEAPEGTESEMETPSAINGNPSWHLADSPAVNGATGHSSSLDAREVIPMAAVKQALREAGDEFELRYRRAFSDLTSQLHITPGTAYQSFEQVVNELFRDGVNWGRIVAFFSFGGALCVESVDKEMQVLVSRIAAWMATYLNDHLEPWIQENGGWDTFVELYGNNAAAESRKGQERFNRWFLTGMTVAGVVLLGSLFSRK
T2 sequence (Q07817 1-209 limits assumed, stated change not applied): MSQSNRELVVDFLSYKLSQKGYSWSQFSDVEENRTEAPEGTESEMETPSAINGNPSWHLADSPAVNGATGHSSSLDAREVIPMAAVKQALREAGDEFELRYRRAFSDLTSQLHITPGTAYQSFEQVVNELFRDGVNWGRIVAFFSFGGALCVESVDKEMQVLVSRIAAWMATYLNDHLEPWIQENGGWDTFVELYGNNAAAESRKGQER

- association in cell extracts (full-length Bcl-xL [1]): associates only with wild-type BimL
- association in GST pull-down (full-length Bcl-xL [2]): more tightly with wild-type BimL
B1: BimL: Bim isoform BimL, BH3-only protein (protein)
chain: MAKQPSDVSSECDREGGQLQPAERPPQLRPGAPTSLQTEPQDRSPAPMSCDKSTQTPSPPCQAFNHYLSAMASIRQSQEEPEDLRPEIRIAQELRRIGDEFNETYTRRVFANDYREAEDHPQMVILQLLRFIFRLVWRRH
modifications: left off: small tags and cut ends
notes: Bim isoform BimL, BH3-only protein
- binding (Bcl-xLΔC24): bound wild-type BimL and the L94A mutant equally
